The results in this text go back to PMC11392804.

For series [1], the target named is StayGold (Cytaeis uchidae (parent GFP)). Briefly: SEC; Superdex 75 Increase 10/300 GL, ~2 mg ml^−1 (76 μM) protein loaded via 100 μl loop, 0.8 ml min^−1, 150 mM NaCl, 20 mM HEPES pH 7.2; monomer and dimer percentages from integrated peak areas; dimer to monomers. For orientation: SEC sorts molecules by how far they enter the pores of the column.
Assay in series [2]: as above

Consider StayGold, for which the stoichiometry N in series [1] was 2. Besides, the “percent dimer (SEC peak areas)” value in series [2] was “the original StayGold is ~98% dimer”.
Turning to mStayGold (StayGold E138D), the “percent monomer (SEC peak areas)” value in series [2] is recorded as “the E138D mutant is more than 99% monomer”.

As a reminder, the stoichiometry N is the number of molecules, sites or subunits per partner or assembly.
